Measured values published in the supplement of paper PMC12636428.

system: Saccharomyces cerevisiae; test: transcriptional activation domain activity (GFP:mCherry ratio, weighted mean of sorted bins, harmonized to initial dataset scale) (arbitrary fluorescence ratio units); higher = stronger transcriptional activation; conditions: beta-estradiol 1 µM; induction time 4 h
Experimental: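 53-aa protein tiles (fungal proteins plus yeast TF control tiles) fused C-terminally to a DBD-estrogen-binding domain-mCherry synthetic TF, integrated in S. cerevisiae (URA3 locus) with a GFP reporter. Cells were induced with 1 uM beta-estradiol for 4 h at 30 C, FACS-sorted into 8 bins by GFP:mCherry ratio and barcodes sequenced. Activity is the read-weighted mean bin fluorescence (GFP:mCherry), averaged over barcodes (median 12); tiles under 50 reads were discarded. New active-learning values were harmonized by linear fit onto the scale of the initial (Hummel et al.) dataset. The assay saturates at low and high signal.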

First: GQRPFGQVLNFFSCFLFIAFSCCHGPSLVNLIVWAAFFAQSTLFLIYLLRCIC
Second: KSPHMSAVESKPKEAKTVVEPKADKAAEVKKEEPKKEVVAAPEPVAAKPIAQI
The “transcriptional activation domain activity” value of the first is higher: 43800 for the first, 35600 for the second.

Going from “MLSSKLNGRSQFICHLCHTGSLLTSVTLIFPFHHTYLHFLGWNLTLLTTVWFF” to “APPPREGGARGGRGGRGRGEFRGGEGRGRGEGRESRGGEGRGRGGEGRGEFRG”, the “transcriptional activation domain activity” value falls from 60600 to 25900.

Going from “YIIPFAWLAAIGHFAVSLVIFDFAPLIHTWDVTLETLSHWLFYFRLSSILYNF” to “MTLVVMMILPPLASLDCFLLSFFFSLLLSPTFPLVLFFSVYKFFHFSTFPFFV”, the “transcriptional activation domain activity” value rises from 35200 to 54800.

“QTTLRAVVSSKEAGVIIGKGGKNVADLRDETGVKAGVSKVVQGVHDRVLTITG” and “IFFCHGRFLTSRSFWAFLLSLFLLIAPSILFLVFTCPWLWFHMSPSIPIVFSY” are the same in “transcriptional activation domain activity” value: 51200 for the first, 51200 for the second.

First: EVTEAEANGETPNAEGVTPAEGEQKPKKKRKSNRKKKAAATPAEGEAAKEAPA
Second: GLANYLKPVHDQKLIIFIEILILLWAVLVYSTVQVARGATGFYLPTVLYNIYL
The “transcriptional activation domain activity” value of the first is lower: 34500 for the first, 49300 for the second.

Compared with “SFLNDAMSEIHTFGDFNGELDSTFLEFSGTEIKEPNNFITENTNAIETAAASM”, “LLKNNILKWMCLVFRFVTRRVRFTYLTLPLATRCVGQGLVYIIRIIQDGHSYI” is lower in “transcriptional activation domain activity” value: 113000 for the first, 43100 for the second.

First: DDGESKEKRSRREKSAASEDESRKRSKSRSKSKSKTPSGNDESSNEDTSAGAD
Second: EAANGDDAEPAAEQNGADIQTAAASPAESTKKDNKKKDKKRSREEEGANGAAA
The “transcriptional activation domain activity” value of the first is lower: 18600 for the first, 39500 for the second.

Compared with “MALHALLHLLNVYYQGCLPYNVLVITVCTMLYKLFFSKSFYCRFRRFGRPWYL”, “FGYSPSAVWVFLFCFGQGLISFAFLPFFFYLVSICIIILGGLLFCIWVVYIYQ” is lower in “transcriptional activation domain activity” value: 54300 for the first, 28400 for the second.

First: LLIYGIVGFINLIKGEYLIVITGCKKIGSLVHNAEIYRATSFQILPVTHGLSS
Second: APVAEPVPVASTSSEVKKDEEEADEDEEDDNVASIEAKIAAARSRLSATHCLF
The “transcriptional activation domain activity” value of the first is higher: 55300 for the first, 10900 for the second.

Compared with “LVSHTVFKIIAICRHYAPPDGYMLAYVLCSSFALASTLWCTLLIICRIVILVQ”, “MELLSLLFFLFFFFFLYSLFGYASTLSFLPHHLFSFLTIYFISYFCDILFFEF” is higher in “transcriptional activation domain activity” value: 39100 for the first, 44900 for the second.

Going from “MRRVTQQTGKGKIPSMYSLVVIGNGDGLVGYGEAKDDEPAAAREKATAKALRS” to “TDAAADAPKEDEVKEGEEKMETESTEEKKESESAEEKPAEETAASADTEMAEA”, the “transcriptional activation domain activity” value falls from 46400 to 25600.

Compared with “PTGESLLDAYWKTLLGGITYGDPNGMEALFWDWYQGILPFRMLQLFHLDRVWF”, “EVVLLPDLCGFCCFSMRFVVLLDLIGTLTLPVTACYLVYLIYVIASGNGPFPL” is lower in “transcriptional activation domain activity” value: 48500 for the first, 46800 for the second.

First: LKNLMATIGLTRKVLFTGRQLEFYLAAVKLLATKDVFVKWTAIAKNFFMIVWV
Second: MWGVLCNWLKHNGMVFSVQCFTFDFLFSFPLSLFFPFFLFSFFLFFLYSFAII
The “transcriptional activation domain activity” value of the first is higher: 55500 for the first, 50100 for the second.

Going from “PEQSSSNAVSDAADQLANVKLEDGTNAAASSAPRTRKPRARKPKRKAAAANAS” to “MSFFLYYFFYLLQGVIIHIIYTYISLFIPLHSFIIISFIFFFFIIFTLFFLLF”, the “transcriptional activation domain activity” value rises from 12100 to 70800.

First: ETPAAEPVKETETAAEAAPAEAAAEATPEEAKEEKKEEKKEEKVKGSKVGRRL
Second: MAVSIWDFVLCIFPHLHFLCLWIVFLSLFMFSYCFKFRFTPVLLTISLPRCFF
The “transcriptional activation domain activity” value of the first is lower: 32500 for the first, 51200 for the second.

Compared with “MLWVCTSRKGESRVVCLGLAHLSIWIRGLLVLERILVCSMSLSCWRVGILKCT”, “SHREEAHEKASESESESGSEEQGSGGEKSEPKPEAEADGAADEASPGEEEGSQ” is lower in “transcriptional activation domain activity” value: 53800 for the first, 24600 for the second.

First: NNETETATKARRKKQAPKAAVEGSEDYESETATKAVAKKETKKKPIQKEVLVP
Second: MLSRCFKCPYGAWGVIIFFIFFFYFFLNIPFFFVYYYLLFFVCSFFSFFFHFI
The “transcriptional activation domain activity” value of the first is lower: < 6570 for the first, 38600 for the second.

Going from “KVKAEGEASDGGAPAPDAEGGAADDSAAGKKAARVRKPKAPRAPRPAGEDPVG” to “AEEEVEEEVKEEEEEEAKEEEDANESEPEPAPEPAKKGRGRKAAKAPTPVEDE”, the “transcriptional activation domain activity” value rises from 34200 to 39700.

Going from “AGPARTGSSSSSSSSDEDKKKKKDKAEEKVEEKKEKPEEKAEDKKEASTAVAA” to “VMMAIIYLMVIFTFIIGVVAGVVPFLYFLSESHFLMCRKASETAGFLCLMFAA”, the “transcriptional activation domain activity” value rises from 23300 to 33700.

Going from “MVIMYKFVFYTGFDRFVFFFWDFFFFFFFFCMLSMGYFSYFIFILSLLESVLV” to “PDHIHHHSNNMNNEDNDNNNGSNNKVSNDSKLDFVTDDLEYHLANTHPDDTND”, the “transcriptional activation domain activity” value rises from 26200 to 47000.

Compared with “MSFLGLSFFAYLLGVGWILLFCLSFGLPQPLSFITWDCLTRGGFFFLLYFFCF”, “IGFVDFPFSSCSFLLGYFCYSVFLCFPFLFLVFFGVIYMWSSRGFLVQSFTMI” is higher in “transcriptional activation domain activity” value: 44500 for the first, 70800 for the second.

Compared with “DSAMRAIYSFRNSYIAFILFNGSIYYYVARFFGFYHKVLDSPIVGFRWVDLHL”, “SKGNSINTFLEQVTFQVVPMLIDLCVAIGYFLVAFDAYYALVVAIVTFCYLYV” is lower in “transcriptional activation domain activity” value: 58300 for the first, 44100 for the second.

First: WSVVFPLQEEEKKKNEEEGLAFPSLDNIKGILRPDSCMRLGSSANIVVLTFPD
Second: DMKDRGLFQCNPYRYAKECCRFVGLFYTAIWLVLRGTHIGHYVISATCLAVLW
The “transcriptional activation domain activity” value of the first is lower: 53600 for the first, 68200 for the second.

Going from “LGSIWKPLRNDLLFGTCFFLTRILYHNIMIFTFYYHLDFMFPVYTLLFILPLH” to “PIYNLHFAPSNEYWFSFSYLPGQGQCTLDSSTTSIGQTRYFIWSLSLWRRIFL”, the “transcriptional activation domain activity” value rises from 61100 to 70200.

First: MADAVAEGTAKLQLDEETGEMVSKGELKKRLQKRAKKAAQAKAKADAPAPSAA
Second: PDEVASEASQPAEPAAASRAESPAAASVYEEAREPQEVQEERVASPVVAATPA
The “transcriptional activation domain activity” value of the first is lower: < 6570 for the first, 48300 for the second.

First: MGGAGDKVLICNCSSTDSFLRMFLLILVFFLIILLVCMDWSLRFLMMFVFLLV
Second: FLSTFFIIPLDVMCRKAVLCCNKHFLPFLMVSMGPRFHSPHFSLNTFCHRLFF
The “transcriptional activation domain activity” value of the first is lower: 19800 for the first, 47300 for the second.

First: AAEEKEGYEDEAEEGEDEEEDEEDPEVRRKEELRARMAKMSAGMGGMGGMGMM
Second: SRKESRKEKSESKPVKAGKKEGKEKGKGKEGKEGKADGEKAAKPKKEKKEKKE
The “transcriptional activation domain activity” value of the first is lower: 10100 for the first, 17700 for the second.

First: LSRKASELRHATRNWALHSKHEEWNVSFRELARKYLIRPFLLMINPVCFLMSF
Second: FDHPLIPNRRKTYMRFEGCNPDMGCTIILRGADIITLRRLKKVMRFVTFMVRN
The “transcriptional activation domain activity” value of the first is higher: 74700 for the first, 70100 for the second.

Compared with “EMRHVILIVFIGMVGCWISQWVFWVGFLKLYSGQGYCPPRLGTLALNWILFSV”, “SDVLFVSLNLLYFWCYLIPLLATIWIRLGNADSTINDRLSVHFYSVAFLLLLF” is lower in “transcriptional activation domain activity” value: 43200 for the first, 32800 for the second.

Going from “QARQAQEPAMSQKDLATKVNEKQSVINDYESGRAVPNQQLLAKLERALGVKLR” to “ILQCIQYFANFRRDSAWMKLIVWLLFLSFPGLFGLLPHFFVYRFLDTLHVLLI”, the “transcriptional activation domain activity” value rises from 51300 to 68900.

For “MSSTPNCARQQPNRSESARNRTKDNCAACREKRLKCDKDGGRKTCSSDSQPSS”, the “transcriptional activation domain activity” value was 37400.
